Test results as given in US20010052137A1, “Axin domain-like polypeptide inhibitors of glycogen synthase kinase 3 beta activity and activators of wnt signaling” (Trustees of the University of Pennsylvania, priority 2000, published 2001).
“Also recorded” adds a separate entry of the source.

B1: deltaGID: Xaxin having amino acid residues 324-504 deleted (protein)
chain: MSVKGKGFPLDLGGSFTEDAPRPPVPGEEGELITTDQRPFSHTYYSLKNDGIKNETSTATPRRPDLDLGYEPEGSASPTPPYLKWAESLHSLLDDQDGIHLFRTFLQQENCADLLDFWFACSGFRKLEPNDSKVEKRLKLAKAIYKKYVLDSNGIVSRQIKPATKSFIKDCVLRQQIDPAMFDQAQMEIQSMMEDNTYPVFLKSDIYLEYTTIGGESPKNYSDQSSGSGTGKGPSGYLPTLNEDEEWRCDQGGEHERERECIPSSLFSQKLALDSSSHCAGSNRRLSDGREFRPGTWREPVNPYYVNTGYAGAPVTSANDSEQQHLSKTLPGSLGTMQTGHGKHSSKSTAKVDSGNLHHHKHVYHHVHHHGGVKPKEQIDGESTQRVQTNFPWNVESHNYATKSRNYAESMGMAPNPMDSLAYSGKVSMLSKRNAKKADLGKSESASHEMPVVPEDSERHQKILQWIMEGEKEIIRHKKSNHSSSSAKKQPPTELARPLSIERPGAVHPWVSAQLRNVVQPSHPFIQDPTMPPNPAPNPLTQLVSKPGARLEEEEKKAAKMPQKQRLKPQKKNVSAPSQPCDNIVVAYYFCGEPIPYRTMVKGRVVTLGQFKELLTKKGNYRYYFKKVSDEFDCGVVFEEVREDDMILPIYEEKIIGQVEKID
modifications: left off: small tags and cut ends
notes: Xaxin having amino acid residues 324-504 deleted
B2: GID-4: Myc-tagged fragment, Xaxin amino acid residues 350-429 (protein)
chain: KHYRREMQESANANGRGPLPHIPRTYHMPKDIHVDPEKFAAELISRLEGVLRDREAEQKLEERLKRVRAEEEGDDGDVSS
modifications: left off: small tags and cut ends
B3: GID-1: Myc-tagged fragment, amino acid residues 277-545 of Xenopus axin (Xaxin) (protein)
chain: SHCAGSNRRLSDGREFRPGTWREPVNPYYVNTGYAGAPVTSANDSEQQSMSSDADTMSLTDSSVDGIPPYRLRKHYRREMQESANANGRGPLPHIPRTYHMPKDIHVDPEKFAAELISRLEGVLRDREAEQKLEERLKRVRAEEEGDDGDVSSGPSVISHKLPSGPPMHHFNSRYSETGCVGMQIRDAHEENPESILDEHVQRVMKTPGCQSPGTGRHSPKSRSPDGHLSKTLPGSLGTMQTGHGKHSSKSTAKVDSGNLHHHKHVYHH
modifications: left off: small tags and cut ends
B4: GID-2: Myc-tagged fragment, Xaxin amino acid residues 320-429 (protein)
chain: DSEQQSMSSDADTMSLTDSSVDGIPPYRLRKHYRREMQESANANGRGPLPHIPRTYHMPKDIHVDPEKFAAELISRLEGVLRDREAEQKLEERLKRVRAEEEGDDGDVSS
modifications: left off: small tags and cut ends
B5: deltaDIX: Xaxin having amino acid residues 778-842 deleted (protein)
chain: MSVKGKGFPLDLGGSFTEDAPRPPVPGEEGELITTDQRPFSHTYYSLKNDGIKNETSTATPRRPDLDLGYEPEGSASPTPPYLKWAESLHSLLDDQDGIHLFRTFLQQENCADLLDFWFACSGFRKLEPNDSKVEKRLKLAKAIYKKYVLDSNGIVSRQIKPATKSFIKDCVLRQQIDPAMFDQAQMEIQSMMEDNTYPVFLKSDIYLEYTTIGGESPKNYSDQSSGSGTGKGPSGYLPTLNEDEEWRCDQGGEHERERECIPSSLFSQKLALDSSSHCAGSNRRLSDGREFRPGTWREPVNPYYVNTGYAGAPVTSANDSEQQSMSSDADTMSLTDSSVDGIPPYRLRKHYRREMQESANANGRGPLPHIPRTYHMPKDIHVDPEKFAAELISRLEGVLRDREAEQKLEERLKRVRAEEEGDDGDVSSGPSVISHKLPSGPPMHHFNSRYSETGCVGMQIRDAHEENPESILDEHVQRVMKTPGCQSPGTGRHSPKSRSPDGHLSKTLPGSLGTMQTGHGKHSSKSTAKVDSGNLHHHKHVYHHVHHHGGVKPKEQIDGESTQRVQTNFPWNVESHNYATKSRNYAESMGMAPNPMDSLAYSGKVSMLSKRNAKKADLGKSESASHEMPVVPEDSERHQKILQWIMEGEKEIIRHKKSNHSSSSAKKQPPTELARPLSIERPGAVHPWVSAQLRNVVQPSHPFIQDPTMPPNPAPNPLTQLVSKPGARLEEEEKKAAKMPQKQRLKPQKKNVSAPSQPCDNIVVAYYFCGEPIPYRT
modifications: left off: small tags and cut ends
notes: Xaxin having amino acid residues 778-842 deleted
B6: deltaRGS: Xaxin having amino acid residues 80-290 (RGS domain) deleted (protein)
chain: MSVKGKGFPLDLGGSFTEDAPRPPVPGEEGELITTDQRPFSHTYYSLKNDGIKNETSTATPRRPDLDLGYEPEGSASPTPREFRPGTWREPVNPYYVNTGYAGAPVTSANDSEQQSMSSDADTMSLTDSSVDGIPPYRLRKHYRREMQESANANGRGPLPHIPRTYHMPKDIHVDPEKFAAELISRLEGVLRDREAEQKLEERLKRVRAEEEGDDGDVSSGPSVISHKLPSGPPMHHFNSRYSETGCVGMQIRDAHEENPESILDEHVQRVMKTPGCQSPGTGRHSPKSRSPDGHLSKTLPGSLGTMQTGHGKHSSKSTAKVDSGNLHHHKHVYHHVHHHGGVKPKEQIDGESTQRVQTNFPWNVESHNYATKSRNYAESMGMAPNPMDSLAYSGKVSMLSKRNAKKADLGKSESASHEMPVVPEDSERHQKILQWIMEGEKEIIRHKKSNHSSSSAKKQPPTELARPLSIERPGAVHPWVSAQLRNVVQPSHPFIQDPTMPPNPAPNPLTQLVSKPGARLEEEEKKAAKMPQKQRLKPQKKNVSAPSQPCDNIVVAYYFCGEPIPYRTMVKGRVVTLGQFKELLTKKGNYRYYFKKVSDEFDCGVVFEEVREDDMILPIYEEKIIGQVEKID
modifications: left off: small tags and cut ends
notes: Xaxin having amino acid residues 80-290 (RGS domain) deleted

How the values were obtained:
[1] = system: GSK-3 beta; assay: In ovo tau phosphorylation assay: GSK-3 beta and Xaxin constructs co-expressed in Xenopus oocytes; type: cell-based; details: construct co-expressed with GSK-3 beta in Xenopus oocytes; tau microinjected; PHF-1 immunoblot
Protocol: Stage VI Xenopus oocytes were isolated by collagenase treatment (Smith et al., 1994, Meth. Cell Biol. 36:45-58) and were injected with mRNA prepared by in vitro transcription (mMessage Machine™; Ambion, Austin, Tex.). 10 nanoliters of mRNA (containing 1-2 nanograms per nanoliter) was injected for each construct (unless otherwise specified), and the injected oocytes were incubated for 16 hours at 18° C. To analyze the effects of Xaxin constructs on dorsal-ventral pattern formation, Xenopus embryos were injected with 10 nanoliters of mRNA (0.1-0.2 nanogram per nanoliter) into one dorsal or ventral cell of a 4 cell embryo and dorsal axes were assessed at the tadpole stage. For Xaxin co-immunoprecipitation, fertilized eggs were injected with 10 nanoliters of Xaxin tagged with Myc, with hemagglutinin, or with both Myc and hemagglutinin (1 nanogram per nanoliter) and harvested at the blastula stage (stage 8).
In ovo phosphorylation of tau by GSK-3 beta was performed by microinjection of tau protein into oocytes expressing GSK-3 beta and Xaxin constructs. After 90 minutes, oocytes were homogenized and tau phosphorylation was analyzed in western blots using phospho-specific antibodies as described (Hedgepeth et al., 1997, Develop. Biol. 185:82-91). In vitro assays for GSK-3 beta activity were performed as described (Klein et al., 1996, Proc. Natl. Acad. Sci. USA 93:8455-8459). Recombinant GID-2/his protein (described below) was purified by affinity chromatography and added to in vitro assays at selected concentrations.
In the experiments presented in this example, a tau phosphorylation assay (described in Hedgepeth et al., 1997, Develop. Biol. 185:82-91) was used to examine the activity of GSK-3 beta in Xenopus oocytes in the presence of full length axin and axin deletion mutants. […] Furthermore, GSK-3 beta-dependent tau phosphorylation occurs in oocytes at the same sites (tau serine residues 396 and 404) that are phosphorylated by GSK-3 beta in vitro and occurs with similarly rapid kinetics.
GSK-3 beta was expressed in oocytes together with Myc-tagged full length Xaxin or with the amino-terminal (amino acid residues 63-288), GID-1 (amino acid residues 277-545), or carboxyl-terminal (amino acid residues 429-713) fragments of Xaxin, as depicted in FIG. 1A. Purified tau protein was then microinjected into the oocytes, and phosphorylation of tau was measured by immunoblotting using antibody PHF-1 or with antibodies that detect all (i.e. phosphorylated and non-phosphorylated) forms of tau.
In order to identify the domain of axin necessary for GSK-3 beta binding, multiple Myc-tagged GID deletion constructs (shown diagrammatically in FIG. 3A) were individually expressed in Xenopus oocytes in which GSK-3 beta was also expressed. Tau protein was microinjected into the oocytes, and immunoblotting was performed using phosphorylation-state-specific tau antibodies. A parallel group of oocytes expressing GSK-3 beta and the Myc-tagged GID deletion constructs were lysed, and GID proteins were immunoprecipitated using a Myc-specific antibody. The presence or absence of GSK-3 beta in GID immunoprecipitates was detected using GSK-3 beta-specific antibodies. GID deletion constructs which included amino acid residues 380-404 of Xaxin (i.e. constructs GID-1, GID-2, GID-4, GID-5, and GID-6) bound GSK-3 beta and inhibited GSK-3 beta mediated tau phosphorylation, as indicated in FIG. 3A. […] However, changing leucine residue 392 in FIG. 3B to proline abolishes its activity.

[2] = system: GSK-3 beta; assay: Co-immunoprecipitation of GSK-3 beta with Myc-tagged Xaxin constructs in Xenopus oocytes; type: binding; details: Myc-tagged construct co-expressed with GSK-3 beta in Xenopus oocytes; anti-Myc IP, anti-GSK-3 beta blot
[3] = system: Xenopus embryos; assay: Dorsal axis duplication / dorsalization in Xenopus embryos after mRNA injection; type: in vivo; details: for effect on axial development / axis formation: construct expressed in embryos, injection side not stated

Molecule | GSK-3 beta-mediated tau phosphorylation (GSK-3 beta activity) [1] | binding with GSK-3 beta (co-immunoprecipitation) [2] | effect on axial development / axis formation [3] | embryos that exhibited dorsalization ([3]; construct(s) expressed in Xenopus embryos) [%]
B1 | no discernible effect | did not bind | infrequent ectopic posterior axis formation | 
B2 | inhibited | bound |  | 
B3 | virtually complete inhibition; also recorded: inhibited | bound | complete axis duplication | 
B4 | inhibited | bound |  | 
B5 | partially inhibited | bound |  | 
B6 | inhibited | bound | complete axis duplication | 86
